In US20230002481A1 (Chugai, published 2023):
Blank lines part the entries; values can stand above or below the binder they belong to.

Target: T1, recombinant cyno C1r2s2 His/Flag tetramer (cynomolgus monkey, limits assumed)
T1 construct: Heterotetramer of two C1r-His and two C1s-Flag chains, co-expressed in FreeStyle293-F cells; also called cyno C1r2s2s
T1 chain 1: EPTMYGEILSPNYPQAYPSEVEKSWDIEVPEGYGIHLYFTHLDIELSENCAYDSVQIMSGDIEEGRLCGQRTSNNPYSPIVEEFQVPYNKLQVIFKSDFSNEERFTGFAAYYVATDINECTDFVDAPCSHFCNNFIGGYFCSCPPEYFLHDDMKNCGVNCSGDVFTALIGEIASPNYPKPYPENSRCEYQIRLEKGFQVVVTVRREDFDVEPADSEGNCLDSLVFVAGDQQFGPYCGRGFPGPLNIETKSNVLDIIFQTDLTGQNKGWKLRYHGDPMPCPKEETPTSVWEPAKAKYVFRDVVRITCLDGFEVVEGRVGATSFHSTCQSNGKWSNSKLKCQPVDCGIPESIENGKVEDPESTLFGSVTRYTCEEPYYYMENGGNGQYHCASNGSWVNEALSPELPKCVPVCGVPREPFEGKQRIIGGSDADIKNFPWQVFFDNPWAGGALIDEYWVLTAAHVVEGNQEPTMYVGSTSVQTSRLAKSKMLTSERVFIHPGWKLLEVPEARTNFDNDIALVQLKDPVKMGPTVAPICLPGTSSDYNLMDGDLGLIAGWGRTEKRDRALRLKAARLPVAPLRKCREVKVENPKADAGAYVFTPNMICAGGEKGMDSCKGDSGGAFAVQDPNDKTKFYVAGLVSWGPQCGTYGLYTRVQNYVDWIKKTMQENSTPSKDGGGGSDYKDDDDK
T1 chain 2: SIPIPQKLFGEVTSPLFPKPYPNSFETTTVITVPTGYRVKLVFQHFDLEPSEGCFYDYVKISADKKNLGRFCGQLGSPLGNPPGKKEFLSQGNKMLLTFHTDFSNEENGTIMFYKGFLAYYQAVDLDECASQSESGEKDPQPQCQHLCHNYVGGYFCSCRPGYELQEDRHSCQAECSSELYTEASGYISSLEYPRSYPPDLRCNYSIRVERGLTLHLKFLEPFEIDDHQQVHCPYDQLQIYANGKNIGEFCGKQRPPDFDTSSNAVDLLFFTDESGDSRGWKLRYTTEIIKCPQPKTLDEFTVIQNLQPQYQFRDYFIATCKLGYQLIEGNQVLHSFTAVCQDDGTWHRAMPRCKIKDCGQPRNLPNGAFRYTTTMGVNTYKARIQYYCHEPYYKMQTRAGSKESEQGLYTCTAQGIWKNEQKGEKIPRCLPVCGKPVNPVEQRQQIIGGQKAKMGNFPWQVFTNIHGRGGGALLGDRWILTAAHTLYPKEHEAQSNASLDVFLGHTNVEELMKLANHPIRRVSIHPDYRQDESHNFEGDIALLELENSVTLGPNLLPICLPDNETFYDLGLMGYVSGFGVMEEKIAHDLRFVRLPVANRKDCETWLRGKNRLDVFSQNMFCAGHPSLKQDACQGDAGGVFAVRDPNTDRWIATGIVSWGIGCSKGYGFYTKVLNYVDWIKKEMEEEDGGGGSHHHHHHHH
Assay: SPR (Biacore), pH5.8*: dissociation at pH5.8 after association and dissociation at pH7.4, 37 C, Scrubber fit
Description: The kinetic parameters of anti-C1s antibodies against recombinant human C1s (as described in PCT/JP2018/042054), human C1r2s2, and cyno C1r2s2 His/Flag (also referred as cyno C1r2s2 in the Table and Figures) were assessed at pH7.4 and pH5.8, at 37 degrees C. using BIACORE (registered trademark) T200 instrument (GE Healthcare) or BIACORE 4000 (GE Healthcare). ProAG (Pierce) was immobilized onto a CM4 sensorchip using amine coupling kit (GE Healthcare) according to the recommended settings by GE Healthcare. Antibodies and analytes were diluted into the respective running buffers, ACES pH7.4 and pH5.8 (20 mM ACES, 150 mM NaCl, 1.2 mM CaCl₂, 1 mg/ml BSA, 1 mg/ml CMD, 0.05% Tween 20, 0.005 w/v % NaN₃). Each antibody was captured onto the sensor surface by ProA/G. Antibody capture levels were typically 100-200 resonance units (RU). Then, recombinant C1s was injected at concentrations of 25 and 50 nM followed by dissociation at pH7.4 and pH5.8. The surface was regenerated using 10 mM Glycine-HCl, pH1.5. Kinetic parameters at neutral pH conditions and acidic conditions were determined by fitting the sensorgrams with 1:1 binding model using BIACORE (registered trademark) T200 Evaluation software, version 2.0 (GE Healthcare) or BIACORE 4000 Evaluation software. The dissociation rate at pH5.8 (after dissociation at pH7.4, indicated as pH5.8* in TABLE 2) was determined by processing and fitting data using Scrubber 2.0 (BioLogic Software) curve fitting software. The association rate (ka), dissociation rate (kd), binding affinity (KD) at pH7.4 and pH5.8 condition, and dissociation rate (kd) at pH5.8* condition of the antibodies are listed in TABLE 2. Some kinetic parameters of COS0098pHv1 in acidic condition were not correctly calculated because of its weak binding response.
Also, to observe the cross-reactivity of anti-C1s antibodies against human C1r2s2 and cyno C1r2s2 (cyno C1r2s2 His/Flag), BIACORE (registered trademark) kinetics analysis was performed.

koff: 0.0618 s⁻¹
B1: COS0098pHv1 (antibody, V domains shown)
VH: QVQLVQSGAEVKKPGSSVKVSCKASGHTFSKYTVSWIRQPPGKGLEWIGIINTGGSAYPATWAKGRVTITADESTSTAYMELSSLRSEDTAVYYCARGAGDTDYTNLWGQGTLVTVSS
VL: DIQMTQSPSSLSASVGDRVTITCQASENIYSALAWYQQKPGQPPKLLIYGASQLESGVPSRFSGSGSGTDFTLTISSLQPEDFATYYCQQYYFTSHTFGQGTKVEIK
notes: Humanized, optimized pH-dependent variant of COS0098bb

koff: 0.000926 s⁻¹
B2: COS0098bb (antibody, V domains shown)
VH: QSVEESGGRLVTPGTPLTLTCTVSGFSLTKYTVSWVRQAPGKGLEWIGIINTGGSAYYATWAKGRFTFSKTSTTVDLQITSPTTEDTATYFCARGNGDTDYTNLWGPGTLVTVSS
VL: QVLTQTPSSVSEPVGGTVTINCQASENIYSALAWYQQKPGQPPKLLIYGASNLESGVPSRFKGSGSGTQFTLTISDLECADAATYYCQQYYFTSSTFGGGTKVEIK
notes: Anti-C1s rabbit antibody, parent of COS0098pHv1; the antibody was captured by ProA/G; also called anti-C1s antibody COS0098bb
